Experiments:
[1] = biological target: human NPR-C (natriuretic peptide receptor C, clearance receptor), overexpressed on HEK293 cells (human) (UniProt P17342); experiment: cell-based or functional assay
[2] = biological target: NPR-C on ATDC5 cells (mouse chondrogenic cell line) (mouse) (UniProt P70180); experiment: displacement of 125I-Ostn[83-133] from ATDC5 cells
Sequence of NPR-C on ATDC5 cells (mouse chondrogenic cell line) (mouse) (P70180 41-536): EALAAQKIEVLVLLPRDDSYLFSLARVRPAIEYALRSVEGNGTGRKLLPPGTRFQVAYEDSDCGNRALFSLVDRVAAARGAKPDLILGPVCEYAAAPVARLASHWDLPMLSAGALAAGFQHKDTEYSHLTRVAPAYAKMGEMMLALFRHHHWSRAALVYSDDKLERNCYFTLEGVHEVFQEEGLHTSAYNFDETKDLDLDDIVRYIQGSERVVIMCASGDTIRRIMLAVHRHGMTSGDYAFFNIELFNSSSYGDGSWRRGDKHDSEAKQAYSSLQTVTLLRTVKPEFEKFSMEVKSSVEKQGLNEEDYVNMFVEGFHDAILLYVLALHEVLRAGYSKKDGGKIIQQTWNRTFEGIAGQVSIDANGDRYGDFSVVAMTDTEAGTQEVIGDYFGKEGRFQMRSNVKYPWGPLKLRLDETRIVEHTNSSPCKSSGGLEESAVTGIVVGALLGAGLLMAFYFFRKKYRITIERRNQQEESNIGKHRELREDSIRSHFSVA

Sequence of human NPR-C (natriuretic peptide receptor C, clearance receptor), overexpressed on HEK293 cells (human) (P17342 27-541): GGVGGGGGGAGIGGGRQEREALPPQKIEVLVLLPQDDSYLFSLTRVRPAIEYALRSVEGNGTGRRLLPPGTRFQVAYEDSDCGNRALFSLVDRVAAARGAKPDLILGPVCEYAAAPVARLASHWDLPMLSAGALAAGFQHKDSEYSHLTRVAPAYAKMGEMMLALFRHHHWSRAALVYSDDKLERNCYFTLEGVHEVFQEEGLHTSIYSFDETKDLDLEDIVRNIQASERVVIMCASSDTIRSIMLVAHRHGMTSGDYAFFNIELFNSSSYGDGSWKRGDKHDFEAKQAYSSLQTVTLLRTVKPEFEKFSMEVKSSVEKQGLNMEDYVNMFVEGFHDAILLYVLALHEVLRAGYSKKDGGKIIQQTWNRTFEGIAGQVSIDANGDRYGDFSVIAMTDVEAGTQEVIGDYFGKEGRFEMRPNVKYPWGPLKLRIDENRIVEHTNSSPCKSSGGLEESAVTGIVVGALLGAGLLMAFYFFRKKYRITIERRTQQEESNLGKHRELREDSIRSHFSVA

cGMP levels of NPR-C-expressing HEK293 cells with 0.1 nM ANP and 10 nM rhOstn[27-133] [1] [fold]	IC50 [2] [nM]	maximal inhibition at 1 µM, difference from that of cold Ostn[83-133] [2] [% less]	Substance
8			N-terminal 6 histidine-tagged recombinant human Ostn rhOstn[27-133] (from UniProt G7NYP9 27-133) (ligand)
	6.7	15	rat C-ANF (peptide)
